Measured values from patent US20220389113A1, “BINDING PROTEINS TO CUB DOMAIN-CONTAINING PROTEIN (CDCP1)” (COMMONWEALTH SCIENTIFIC AND INDUSTRIAL RESEARCH ORGANISATION, priority 2019, published 2022).

Assays:
[1] = test system: OVMZ6-CDCP1 cells; assay: Colony formation assay, OVMZ6-CDCP1 cells; format: cell-based, human
Description: (§1) MMAE-conjugated 10D7 and IgG1K were prepared as described (Nielsen C F, et al., (2017) Oncotarget. 8(27):44605-24.53) and drug-antibody ratio (DAR) determined by reverse phase LC/MS as reported (Basa L. et al., (2013) Methods Mol Biol. 1045:285-93.) on an ABSCIEX Triple TOF spectrometer (AB SCIEX Framingham, Mass.) coupled to a Shimadzu Nexera 1D UHPLC system (Shimadzu, Rydalmere, Australia). ADC peak identification was performed as reported with DAR determined by peak area integration (Hamblett K J, et al., (2004) Clin Cancer Res. 10(20):7063-70; Yao X, et al., (2015) Breast Cancer Res Treat. 153(1):123-33). Colony-formation assays were performed as described (Crowley L C, et al., (2016) Cold Spring Harb Protoc. 2016(8):pdb.prot087171) on cells (100,000/ml) treated with the indicated concentrations of 10D7, 10D7-MMAE, IgG or IgG-MMAE overnight before being lifted and replated in 24-well plates (200 cells/well). After a defined growth period media was removed and cells gently PBS washed before staining with 0.1% crystal violet (Sigma-Aldrich) in 2% ethanol. After 20 minutes and stained cells were scanned (700 nm) on a LiCOR System (Odyssey V3.0 software) with images analyzed using the ColonyArea ImageJ plugin to quantify colony area and intensity (Guzmán C, et al., (2014) PLoS One. 9(3):e92444.). […]

[2] = test system: TKCC2.1 cells xenografts; assay: Pancreatic cancer subcutaneous xenograft, MMAE-labelled 10D7 and chimeric 10D7; conditions: 125 μg iv, treated twice
Description: Pancreatic cancer cells (TKCC2.1 cells, 1×10^6 cells) were grafted subcutaneously in NSG mice. After 4 weeks, mice were randomized into 5 groups (10 mice per group) and treated with: PBS (iv, 125 μl fortnightly), IgG-MMAE (iv, 125 μg diluted in 125 μl PBS), 10D7-MMAE (iv, 125 μg diluted in 125 μl PBS), Chim hu/mu-10D7-MMAE (iv, 125 μg diluted in 125 μl PBS) or Gemcitabine (ip, 100 mg/kg in PBS weekly).
Mice were euthanized when one ethical end point was reached (either tumour size or excessive signs of distress).

[3] = test system: TKCC10 cells; assay: Survival assay with cytotoxin-conjugated antibodies, TKCC10; format: cell-based, human; conditions: TKCC10, 1 μg/ml, 12 h treatment then 72 h growth
Description: (§2) The relative number of viable cells was then measured by adding the CellTiter AQueous One Solution Reagent to each well and measuring absorbance at 490 nm as described above. […] Cells were imaged by wide-field fluorescence microscopy and the total area of confluence for each cell type was quantified by image analysis using Image J software.

[4] = test system: TKCC05 cells; assay: Survival assay with cytotoxin-conjugated antibodies, TKCC05; format: cell-based, human; conditions: TKCC05, 1 μg/ml, 12 h treatment then 72 h growth
Description: as §2

[5] = test system: HEY cells; assay: Colony formation assay, HEY cells; format: cell-based, human
Description: as §1

[6] = test system: subcutaneous TKCC05 cells xenografts; assay: TKCC05 subcutaneous xenograft, MMAE-conjugated antibodies; format: in vivo, mouse; conditions: 5 mg/kg i.v. on day 27 and 41, in comparison with the other treatments
Description: Mouse experiments were approved by the University of Queensland Animal Ethics Committee. PDAC cells (2.5×10^6) were injected subcutaneously into the flanks of NOD.Cg-Prkdcscid Il2rgtm1Wjl/SzJ (NSG) mice (6-8 weeks; Jackson Laboratory, Bar Harbor, Me.). For assays assessing the impact of antibody 10D7 on xenograft growth, two weeks after PDAC cell inoculations, mice (n=6/group) were randomized and treated i.v. every four days with PBS, 10D7 (5 mg/kg) or IgG (5 mg/kg) until the end of the assay. For assays assessing whether 10D7 improves the efficacy of gemcitabine chemotherapy, four weeks after PDAC cell inoculations, mice were randomized and treated i.v. every four days with PBS (n=12), 10D7 (n=12, 5 mg/kg) or IgG (n=12, 5 mg/kg). Half of the mice in each of the three groups also received gemcitabine i.p. treatments (125 mg/kg/week). At the end of the assay tumours were harvested, weighed and processed for assessment of histology and CDCP1 expression by immunohistochemistry or western blot analysis. […] Tumour burden was monitored by calliper measurement and tumour volume calculated as previously described (Feldman J P, Goldwasser R, Mark S, Schwartz J (2009) Journal of Applied Quantitative Methods 4(4):455-462). […]
Finally, the inventors evaluated whether the PDAC targeting ability of antibody 10D7 can be harnessed to effectively deliver the cytotoxin MMAE to PDAC in vivo. […]

B1: 10D7-MMAE (conjugate)
VH: EVQLQQFGAELVKPGASVKISCKASGYSFSDFNIEWLKQSHGKSLEWIGDINPNYDSTNYNQKFKGRATLTVDKSSSTAYMEVRSLTSEDTAVYYCARLGYGYAMDYWGQGTSVTVSS
VL: NIVMTQSPQSMSMSVGERVTLSCKASENVGAYVSWFQQKPDQSPKLLILAASNRYTGVPARFIGSGSATDFTLTISSVQAEDLADYHCGQSYTYPYTFGGGTKLEIKRADAAPTVS
Q: B1 was tested. Which “half maximum dose required to block colony formation” value [1] did it give?
A: Its value is about 0.07 µg/mL.

Q: What about the “reduction of pancreatic tumour volume” value [2] of the same molecule?
A: Its value is “superior to gemcitabine”.

Q: What about the survival of mice [2] of the same molecule?
A: The survival of mice was “prolonged”.

Q: What about the survival of cells [3] of the same molecule?
A: Its survival of cells is “about 50%”.

Q: And the survival of cells [4]?
A: The survival of cells was “about 10%”.

Q: What about the “half maximum dose required to block colony formation” value [5] of the same molecule?
A: Its value is “approximately 0.2 μg/ml”.

Q: And the “survival of xenografted mice” value [6]?
A: Its value is “significantly extended survival”.

Q: And the tumour growth [6]?
A: Its tumour growth is “markedly inhibited tumour growth”.
